According to US20250042992A1 (University of California, published 2025):
One block for each binder: values may come before it.

Experiments:
[1] = biological target: T1, human DLK1 long form (isoform 1, DLK1-FL) fused to mGFP, overexpressed on HEK293T cells (human, UniProt P80370 24-383); assay: KinExA on HEK293T DLK1mGFP Human Clone G06 cells detached by Versene; Error% 3.83; 95% CI 0.455nM - 2.19nM; equilibrium curves 500pM, 20nM
T1 construct: also called HEK293T DLK1 mGFP G06 (long form); DLK-FL; not shown: mGFP fluorescent protein fused to DLK1
T1 sequence: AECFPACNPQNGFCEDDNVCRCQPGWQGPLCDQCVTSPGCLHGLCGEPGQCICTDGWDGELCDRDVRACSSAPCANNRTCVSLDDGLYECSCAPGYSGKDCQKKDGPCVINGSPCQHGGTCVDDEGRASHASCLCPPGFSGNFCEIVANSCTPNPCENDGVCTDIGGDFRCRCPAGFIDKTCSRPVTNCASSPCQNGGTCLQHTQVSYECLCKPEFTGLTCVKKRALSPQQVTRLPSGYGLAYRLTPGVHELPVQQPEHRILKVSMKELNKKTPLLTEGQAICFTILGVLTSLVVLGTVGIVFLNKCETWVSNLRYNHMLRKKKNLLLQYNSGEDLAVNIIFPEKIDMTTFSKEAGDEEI

[2] = biological target: T2, mouse DLK1 fused to mGFP, overexpressed on HEK293T cells (mouse, UniProt Q09163 24-385); assay: flow cytometry, row HEK293T Mouse DLK1mGFP mass
T2 construct: not shown: mGFP fluorescent protein fused to DLK1
T2 sequence: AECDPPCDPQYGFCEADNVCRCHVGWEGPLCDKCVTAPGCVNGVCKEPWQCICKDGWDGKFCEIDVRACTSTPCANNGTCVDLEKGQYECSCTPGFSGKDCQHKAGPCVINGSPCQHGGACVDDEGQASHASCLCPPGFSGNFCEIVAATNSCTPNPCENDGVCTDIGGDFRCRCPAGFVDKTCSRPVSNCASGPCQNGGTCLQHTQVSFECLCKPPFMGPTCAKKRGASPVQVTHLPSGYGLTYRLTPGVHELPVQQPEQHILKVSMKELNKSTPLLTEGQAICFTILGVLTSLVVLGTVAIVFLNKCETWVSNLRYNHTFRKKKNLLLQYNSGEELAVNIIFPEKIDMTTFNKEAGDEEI

[3] = biological target: T3, monkey DLK1 fused to mGFP, overexpressed on HEK293T cells (monkey (crab-eating macaque), UniProt A0A2K5TMQ6 24-383); assay: KinExA on HEK293T DLK1mGFP Monkey mass pop cells detached by Versene; Error% 2.87; 95% CI 1.33nM - 3.45nM; equilibrium curves 400pM, 50nM
T3 construct: whole, on cells; also called crab-eating macaque DLK1; not shown: mGFP fluorescent protein fused to DLK1
T3 sequence: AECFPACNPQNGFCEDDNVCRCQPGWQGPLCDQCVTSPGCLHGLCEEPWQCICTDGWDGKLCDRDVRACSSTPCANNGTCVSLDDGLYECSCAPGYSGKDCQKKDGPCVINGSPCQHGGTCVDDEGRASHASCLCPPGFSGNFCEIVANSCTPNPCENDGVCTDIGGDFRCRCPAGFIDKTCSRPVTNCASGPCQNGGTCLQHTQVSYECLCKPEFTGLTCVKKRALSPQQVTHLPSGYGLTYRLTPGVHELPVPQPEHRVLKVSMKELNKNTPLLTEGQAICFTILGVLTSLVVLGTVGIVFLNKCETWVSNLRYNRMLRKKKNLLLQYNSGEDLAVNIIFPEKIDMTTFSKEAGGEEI

[4] = biological target: T4, DLK1 ECD-mFc long form (human DLK1-FL, isoform 1) (human, UniProt P80370 24-303); assay: ELISA, plate coated with DLK1 ECD-mFc long form
T4 construct: also called long form of the human DLK1 protein (ELISA coat); not shown: mFc (monomeric immunoglobulin Fc domain)
T4 sequence: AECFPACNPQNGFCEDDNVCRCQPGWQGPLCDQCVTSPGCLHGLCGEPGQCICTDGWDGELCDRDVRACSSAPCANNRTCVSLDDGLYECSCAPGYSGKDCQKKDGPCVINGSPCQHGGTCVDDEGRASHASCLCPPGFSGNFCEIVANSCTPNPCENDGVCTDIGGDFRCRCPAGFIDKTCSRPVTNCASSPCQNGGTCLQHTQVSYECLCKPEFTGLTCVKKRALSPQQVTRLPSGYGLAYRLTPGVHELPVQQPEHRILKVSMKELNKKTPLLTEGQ
Procedure: Plates were incubated with DLK1 Abs serially diluted 2-fold starting from 400 ng/ml in 5% BSA/PBS at RT for 1.5 hrs. Mouse anti-human IgG Fc secondary antibody conjugated to HRP (Novus catalog number: NBP1-78623H) at 1:3000 dilution was applied to each well at 50 μl/well and further incubated at RT for 1 hr. The ELISA was developed first with Thermo Scientific Pierce 1-Step™ Ultra TMB-ELISA substrate solution and then with addition of sulfuric acid stop solution. The ELISA plate was read on a plate reader at 450 nm.

[5] = biological target: human DLK1-overexpressed on surface of HEK293T cells or DLK1-positive COR-L279 cells; assay: affinity on cells (HEK293T overexpressing human DLK1 or COR-L279); method not stated in the sentence (KinExA is named for FIG. 11)
[6] = biological target: T3, monkey DLK1 fused to mGFP, …; assay: KinExA on HEK293T DLK1mGFP Monkey mass pop cells detached by Versene; Error% 3.92; 95% CI 5.15nM - 17.83nM; equilibrium curves 400pM, 50nM
[7] = biological target: T2, mouse DLK1 fused to mGFP, overexpressed …; assay: KinExA on HEK293T DLK1mGFP Mouse mass pop cells detached by Versene; Error% 3.08; 95% CI 4.21nM - 26.32nM; equilibrium curves 400pM, 50nM

Kd [1]: 1.11 nM | binding result [2]: no binding (tested: 20µg/ml) | Kd [3]: 2.19 nM | fold higher binding affinity than LegoChem 18A5 antibody for human DLK1-FL [4]: > 20 fold
B1: humanized anti-DLK1 antibody 04-0561-F1 (IgG1) (antibody, V domains shown)
VH: QVQLQESGPGLVKPSETLSLTCTVSGFSLSIYSVHWVRQPPGKGLEWIGLIWGGGSTDYNPSLKSRVTISKDTSKNQVSLKLSSVTAADTAVYYCARKEGNYLWFAYWGQGTLVTVSS
VL: DIVMTQSPDSLAVSLGERVTMNCKSSQSLLQSSNQKNYLAWYQQKPGQPPKLLVYFASTRESGVPDRFSGSGSGTDFTLTISSVQAEDVAVYYCQQHYSIPLTFGQGTKLEIKR

Kd [5]: 5 to 9 nM | Kd [6]: 9.89 nM | Kd [7]: 13 nM
B2: humanized anti-DLK1 antibody 04-0547-h2 (IgG1) (antibody, V domains shown)
VH: EVQLVESGGGLVQPGGSLRLSCAASGFSISDYYMAWVRQAPGKGLEWVANINYDGTNTYYADSVKGRFTISRDNSKNTLYLQMNSLRAEDTAVYYCVRSYYYYGMEYWGQGTTVTVSS
VL: DIQMTQSPSSLSASVGDRVTITCRASHDVSTAVAWYQQKPGKAPKLLIYSASYRYTGVPSRFSGSGSGTDFTLTISSLQPEDFATYYCQQHYRIPLTFGQGTKLEIK
notes: human kappa (P01834) and human IgG1 (P01857) constant regions
